Source: the supplement of paper PMC10567573

B1: HESX1 (parent)
chain: HVPNPPSGISFPSVVDHPMPEERA
B2: WEE1 (parent)
chain: INPFTPDSLLLHSSGQCRRRKRTY

Variants of: B1
Test: protein stability index of a GFP-peptide fusion (GPS, HEK-293T) (PSI 1-6); higher = more stable
Conditions: c terminus: a fixed tail appended
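Also: lentivirally expressed fusions sorted by FACS into six bins by GFP to DsRed ratio, PSI derived from sequencing read proportions per bin multiplied by bin number.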

Protein stability index: each site, then its substitutions
V14: G 4.21; I 3.11; C 2.25; Q 4.01; N 4.43; P 3.83; A 3.13
I9: D 4.1; Q 3.62; R 2.67; N 3.31; Y 2.43; C 2.66; H 3.24; A 3.04
V2: N 5.14; C 4.32; M 5.26; F 4.78; Y 5.18; W 4.53; I 4.37; R 4.84; S 5.06; T 4.92
S10: T 2.97; I 2.59
P20: W 2.1; C 2.45; D 2.98; I 2.49; F 2.21; M 2.79; S 2.82; V 2.55
V15: G 3.85; W 2.17; T 3.13; A 2.65; S 2.99; E 3.93
H17: C 2.39; G 2.82; M 2.52; Y 2.52; I 2.66; L 2.39; Q 2.68; V 2.57; F 2.15; T 2.94; S 3.01
M19: D 2.94; L 2.39; Q 3.17; A 2.99; I 2.59; Y 2.27
D16: K 2.21; S 2.22; I 1.92; H 2.81; G 2.18; E 2.73; C 2.4; T 2.03; A 2.72; W 1.57; L 2.36
G8: H 3.49; Y 2.09; Q 3.18; I 2.83; F 2.84; D 4.1; A 3.2; N 3.48; K 3.62; W 2.87; T 2.91; R 2.94
P6: K 1.78; Q 2.67; Y 2.39; G 1.81; L 2.62; W 2.25; R 1.71; N 2; C 1.69
S7: V 3.3; Q 2.84; P 2.7; I 3.4; G 2.4; C 2.38
P5: E 3.81; A 2.71; Y 2.03; N 3.03; V 2.82; Q 3.5; K 2.69
S13: D 3.94; C 2.45; K 1.71; W 2.14; F 1.89; N 3.04; L 2.09; V 2.43
E22: G 2.08; N 2.02; V 2.16; H 2.29; K 1.83; F 1.9; W 2.37; M 2.15
F11: L 4.93; I 4.39; W 2.54; Y 4.22; N 4.54; P 5.21; C 4.39
N4: Q 3.45; Y 3.06; D 3.88; H 3.09
H1: I 4.77; C 4.48; P 5.28; F 3.54; V 5.32; D 5.46; Q 5.07; G 5.41; N 5.29; S 5.2
P3: Y 3.54; Q 4.09; S 3.78; C 3.54; E 5.25; V 3.86; T 3.9; D 5.34; K 2.99; A 3.79; N 4; H 4.13
R23: K 2.77; N 2.73; A 2.53; V 2.49; G 3.19; P 2.76; T 2.6; E 2.76; S 2.36; M 2.38
A24: F 2.3; I 2.36; N 2.74; E 2.95; P 2.98; T 2.87; S 2.5
P18: T 2.51; H 2.49; S 2.61; A 2.61; D 2.78; I 2.36; C 2.25; M 2.49
P12: W 3.85; R 3.42; N 3.98; Y 2.56; S 4.01; I 2.43; C 2.72
E21: M 1.86; G 2.08; L 1.97; F 1.96; A 2.49; D 2.85; W 2; Q 2.33; I 1.95

Variants of: B2
Test: as above
Conditions: c terminus: a fixed tail appended

Protein stability index of substitutions, site by site:
I1: W 3.83; R 4.02; M 3.33; P 4.36; C 3.17; A 4.07; F 2.73; Y 3.05; H 3.89; D 4.03; N 4.17; T 3.87; L 3.19; G 3.81; K 3.62; E 3.6; Q 3.95; S 3.52; V 3.55
N2: V 3.39; C 3.69; G 3.48; K 2.83; W 2.39; P 3.29; L 2.37; D 4.16; Q 3.57; T 3.59; R 2.9; S 3.54; A 3.09; H 3.19; E 3.93; M 3.08; F 2.35; Y 2.55; I 2.36
S8: F 2.5; G 3.44; A 3.42; E 4.08; I 2.6; C 2.73; H 3.83; D 4
F4: L 3.2; D 3.99; I 3.79; Q 4.22; A 4.11; W 3.87; C 3.67; T 4.38; Y 3.31; P 4.58; H 4.25; R 3.77; N 4.08; K 4.27; E 4.48; S 4.18; M 4.04; G 4.05; V 4.08
P3: E 3.44; A 3.21; I 2.69; L 2.61; T 3.06; S 3.51; N 3.12; V 2.71; R 3.4; M 2.99; D 3.33; C 3.41; Q 3.35; F 2.33; Y 2.38; G 3.11; W 1.3; H 3.93; K 3.1
T5: A 3.93; K 3.45; H 3.33; C 2.87; M 2.89; N 3.24; S 3.23; F 2.67; Y 2.93; D 4.01; E 3.98; G 3.76; R 3.41; I 2.48; Q 3.78; W 2.51; V 3.71; P 2.95; L 3.04
D7: W 3.99; M 3.12; V 2.63; N 2.41; F 2.12; R 3.39; L 2.73; C 2.46; I 2.55; T 3.51; E 3.6; K 3.31; Q 3.52; A 3.13; G 2.24; Y 3.27; P 3.09; S 3.14; H 2.69
P6: R 3.02; C 3.04; G 3.58; D 3.87; F 2.64; K 3.26; S 3.61; Y 2.56; V 2.07; M 2.52; L 2.06; Q 3.09; W 2.21; T 3.2; E 3.71; N 4.07; A 4; H 3.18; I 2.79
